Laboratory results from article PMC6265464.

Tests used:
[1] = target: full-length 3× Flag-tagged R192F hFEN1 (human) (UniProt P39748); assay: co-IP
[2] = target: hFEN1 D181A/R192F (1-333) (Homo sapiens, UniProt P39748 1-333, D181A;R192F); assay: X-ray crystallography
hFEN1 D181A/R192F (1-333), sequence (P39748 1-333 D181A/R192F): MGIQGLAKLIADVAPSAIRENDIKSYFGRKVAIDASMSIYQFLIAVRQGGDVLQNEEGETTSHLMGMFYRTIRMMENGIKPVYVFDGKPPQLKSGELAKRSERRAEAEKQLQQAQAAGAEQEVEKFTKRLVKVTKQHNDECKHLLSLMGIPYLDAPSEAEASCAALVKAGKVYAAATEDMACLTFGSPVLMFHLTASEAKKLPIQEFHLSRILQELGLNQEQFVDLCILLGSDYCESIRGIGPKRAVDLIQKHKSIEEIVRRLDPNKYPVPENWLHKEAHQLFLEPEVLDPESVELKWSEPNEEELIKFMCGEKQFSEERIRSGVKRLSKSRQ

full-length 3× Flag-tagged R192F hFEN1 (human), sequence (P39748 whole entry R192F): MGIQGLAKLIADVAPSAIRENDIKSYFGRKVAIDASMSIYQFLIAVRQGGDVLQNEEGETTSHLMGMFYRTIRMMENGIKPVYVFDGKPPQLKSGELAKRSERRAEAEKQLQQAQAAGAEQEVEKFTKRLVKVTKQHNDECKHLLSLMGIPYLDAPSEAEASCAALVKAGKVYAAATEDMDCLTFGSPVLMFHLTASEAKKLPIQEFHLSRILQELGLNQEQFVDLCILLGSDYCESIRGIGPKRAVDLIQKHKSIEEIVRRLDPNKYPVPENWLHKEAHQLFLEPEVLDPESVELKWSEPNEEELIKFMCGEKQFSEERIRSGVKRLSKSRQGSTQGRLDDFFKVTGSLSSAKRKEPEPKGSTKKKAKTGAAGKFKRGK
Cyclin E, sequence (P24864 whole entry): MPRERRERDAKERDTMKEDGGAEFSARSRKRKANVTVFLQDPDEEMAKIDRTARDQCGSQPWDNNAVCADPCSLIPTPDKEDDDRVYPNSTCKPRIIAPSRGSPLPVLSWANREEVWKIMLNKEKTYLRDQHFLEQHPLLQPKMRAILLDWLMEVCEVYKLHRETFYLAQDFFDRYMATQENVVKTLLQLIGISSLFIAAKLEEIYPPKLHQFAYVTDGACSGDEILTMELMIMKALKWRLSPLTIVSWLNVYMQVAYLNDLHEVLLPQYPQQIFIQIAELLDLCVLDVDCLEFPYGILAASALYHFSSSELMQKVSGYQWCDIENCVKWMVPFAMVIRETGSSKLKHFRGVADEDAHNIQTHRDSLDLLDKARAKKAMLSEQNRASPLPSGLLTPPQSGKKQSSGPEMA

percent lower interaction than with wild-type hFEN1 [1] | Molecule | binding result [2]
40% | CDK2 (from UniProt P24941 1-298) (enzyme) | 
70% | Cyclin E (from UniProt P24864 1-410) (natural protein) | 
 | double-flap DNA (D181A/R192F crystal) (dsDNA) DNA 1: CCTCTGCCTCAAGACGGG DNA 2: GCCCGTCC DNA 3: ACTTTGAGGCAGAG | binds
